The results in this text go back to article PMC9029710, “Improvement of Biocatalytic Properties and Cytotoxic Activity of L-Asparaginase from Rhodospirillum rubrum by Conjugation with Chitosan-Based Cationic Polyelectrolytes” (Pharmaceuticals, 2022).

Substrate in this data set: NC(=O)C[C@H](N)C(=O)O
Put plainly: circular dichroism hydrolysis assay. The data set is classed as biochemical, Rhodospirillum rubrum. As to conditions: native RrA, pH 7.5, 5 mM citrate-phosphate-borate buffer, 37 °C. An excerpt:
circular dichroism hydrolysis assay on RrA (L-asparaginase from Rhodospirillum rubrum)

B1: RrA (L-asparaginase from Rhodospirillum rubrum) (Rhodospirillum rubrum ATCC 11170) (protein)
chain: MAVSPSPLRIFTAGGTIDKDYRLEENGLVVGDPFVAEVLKTARLAGAVSIVALSRKDSLDFTEADREAIGRAVGQAVEDHILLTHGTDTMVETARYLGGLPELAGKTVVLSGAMVPGRVGGSDAAFNIGFACAAALMLAPGVYIAMHGKVFDPAKTRKNRGLGRFEPIDDQE
notes: 172 aa, 18 kDa, tetramer; native unconjugated enzyme
Turning to B1, the Km came out at 4.8 ± 1.6 mM, the Vmax was 59 µmol/min/mg and the Vmax/Km turned out to be 12300 µL/min/mg.
